From patent US20230183713A1, “SITE-SPECIFIC RECOMBINASES FOR EFFICIENT AND SPECIFIC GENOME EDITING” (TECHNISCHE UNIVERSITÄt DRESDEN, published 2023)
Changes are numbered by the printed parent chain. Names may count otherwise.

Tests used:
[1] = target: T1, Cre recombinase monomer with W315M mutation
T1 chain: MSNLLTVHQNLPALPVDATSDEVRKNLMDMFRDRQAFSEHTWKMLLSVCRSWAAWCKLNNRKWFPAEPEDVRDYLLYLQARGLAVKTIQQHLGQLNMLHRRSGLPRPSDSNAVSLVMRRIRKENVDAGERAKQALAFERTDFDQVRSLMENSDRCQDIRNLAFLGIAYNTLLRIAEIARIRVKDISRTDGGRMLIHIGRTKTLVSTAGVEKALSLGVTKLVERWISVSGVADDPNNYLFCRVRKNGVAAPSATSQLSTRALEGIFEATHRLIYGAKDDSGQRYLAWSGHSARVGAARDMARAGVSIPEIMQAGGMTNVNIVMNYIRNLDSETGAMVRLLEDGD

[2] = target: T2, Cre recombinase monomer with W315N mutation
T2 chain: T1 chain with M315N

[3] = target: T3, Cre recombinase monomer with W315T mutation
T3 chain: T1 chain with M315T

[4] = target: T4, Cre recombinase monomer with Y324K mutation
T4 chain: T1 chain with M315W, Y324K

[5] = target: T5, Cre recombinase monomer with Y324M mutation
T5 chain: T1 chain with M315W, Y324M

[6] = target: T6, Cre recombinase monomer with Y324N mutation
T6 chain: T1 chain with M315W, Y324N

[7] = target: T7, Cre recombinase monomer with Y324S mutation
T7 chain: T1 chain with M315W, Y324S

[8] = target: T8, Cre recombinase monomer with Y324W mutation
T8 chain: T1 chain with M315W, Y324W

B1: Cre recombinase monomer with Q311R mutation (protein)
chain: T1 chain with Q311R, M315W
- Median dimer activity (recombination on loxP) [1]: 95%
- Median dimer activity (recombination on loxP) [2]: 64%
- Median dimer activity (recombination on loxP) [3]: 66%
- Median dimer activity (recombination on loxP) [4]: 85%
- Median dimer activity (recombination on loxP) [5]: 96%
- Median dimer activity (recombination on loxP) [6]: 81%
- Median dimer activity (recombination on loxP) [7]: 81%
- Median dimer activity (recombination on loxP) [8]: 95%
